Experimental data taken from the Human Domainome abundance scans (Beltran et al. 2025).

B1: Pituitary-specific positive transcription factor 1, residues 130 to 198; numbered along this chain, P28069 (parent)
chain: RELEKFANEFKVRRIKLGYTQTNVGEALAAVHGSEFSQTTICRFENLQLSFKNACKLKAILSKWLEEAE

Variants of: B1
Test: abundance fitness (aPCA) (normalised: wild type 0, dead -1); higher = more abundant; growth selection in yeast, the domain comes from the species named
Settings: Homo sapiens

Abundance fitness, by site and new letter:
V31: T -0.021, M -0.135, N -0.389, Q -0.033, W -0.392, S -0.004, Y -0.339, P -0.912, R -0.053
E35: S -0.051, V -0.306, H -0.228, N -0.165, D -0.144, Q -0.059, F -0.262, R -0.208, L -0.222, M -0.162, P -0.381, K -0.23, W -0.265, I -0.276, G -0.086, C -0.182, A -0.097
T39: L -0.242, V -0.113, I -0.312, Y -0.447, C -1.07, P -0.387, S -0.065, K 0.052, G -0.13, Q 0.13, W -0.393, M -0.147, E 0.255, R -0.096, D 0.118
F44: A -0.958
G33: S -0.75, E -0.856, M -0.792, P -0.393, A -0.555, H -0.536, K -0.85, F -0.934, Y -0.96, I -1, L -1.08, C -0.791, R -0.835, D -0.721, T -0.892, Q -0.212
R43: D 0.112, M 0.234, C -0.559, T -0.825, I -0.888, N -0.085, Q 0.11, V -0.966, A 0.12, P -0.855, G -0.388, E 0.119, L -0.181, F -0.289, Y -0.846, S -0.416
I41: C -0.444, D -0.758, H -0.56, P -0.897, L -0.541, G -0.976, W -0.502, M -0.446, Q -0.785
